Among the data in article PMC11417369, “DNA sequence and chromatin differentiate sequence-specific transcription factor binding in the human malaria parasite Plasmodium falciparum” are binding signal values, retold here.

To fix the notation:
B1: GTGCAC_negctrl_site589 (dsDNA)
DNA 1: TTCTTTAATAAAATAATCTCAAAGAAAATTTTTTCT
DNA 2: AGAAAAAATTTTCTTTGAGATTATTTTATTAAAGAA
B2: GTGCAC_negctrl_site139 (dsDNA)
DNA 1: TGATGAAAATCTACATGAATGTTTTTATATCTATAT
DNA 2: ATATAGATATAAAAACATTCATGTAGATTTTCATCA
B3: GTGCAC_negctrl_site370 (dsDNA)
DNA 1: AATATATGGTTTCATGATATTAAATTCAATTTAATG
DNA 2: CATTAAATTGAATTTAATATCATGAAACCATATATT
B4: GTGCAC_negctrl_site345 (dsDNA)
DNA 1: TTTTTCTATATTTTCTTTTATAAAATATATAATTTT
DNA 2: AAAATTATATATTTTATAAAAGAAAATATAGAAAAA
B5: GTGCAC_negctrl_site203 (dsDNA)
DNA 1: TTGATGTATACAATGTAGATTATTTAATATTTCAAT
DNA 2: ATTGAAATATTAAATAATCTACATTGTATACATCAA
B6: GTGCAC_negctrl_site616 (dsDNA)
DNA 1: TTATTTTTATTATAAATTATAAAATATAAATAAATA
DNA 2: TATTTATTTATATTTTATAATTTATAATAAAAATAA
B7: GTGCAC_negctrl_site664 (dsDNA)
DNA 1: AAAAAAAAAAAGATAAATACAAGTTACACAAAAAAA
DNA 2: TTTTTTTGTGTAACTTGTATTTATCTTTTTTTTTTT
B8: GTGCAC_negctrl_site80 (dsDNA)
DNA 1: TATTTTTTTTTCTTTTTATATATAATAATCTTCATT
DNA 2: AATGAAGATTATTATATATAAAAAGAAAAAAAAATA
B9: GTGCAC_negctrl_site643 (dsDNA)
DNA 1: TGTAGTCATTAGTCAAATTAGAATTAAATATATATT
DNA 2: AATATATATTTAATTCTAATTTGACTAATGACTACA
B10: GTGCAC_negctrl_site307 (dsDNA)
DNA 1: AATAATAAACACAATCAAATAAAATATGAAATATAA
DNA 2: TTATATTTCATATTTTATTTGATTGTGTTTATTATT
B11: GTGCAC_negctrl_site193 (dsDNA)
DNA 1: GCATATATTATATATTTATTTATTTTTTTTTTTTAA
DNA 2: TTAAAAAAAAAAAATAAATAAATATATAATATATGC
B12: GTGCAC_negctrl_site156 (dsDNA)
DNA 1: TAACTTTTTTTTTTTTTTTTTTAACTTTTATGTAAT
DNA 2: ATTACATAAAAGTTAAAAAAAAAAAAAAAAAAGTTA
B13: GTGCAC_negctrl_site286 (dsDNA)
DNA 1: TCCTATCATTTATATTTTACTACATAATATTGATAA
DNA 2: TTATCAATATTATGTAGTAAAATATAAATGATAGGA
B14: GTGCAC_negctrl_site543 (dsDNA)
DNA 1: AAATGTGTAAATATAATTAGTTTCACAAAACAAATA
DNA 2: TATTTGTTTTGTGAAACTAATTATATTTACACATTT
B15: GTGCAC_negctrl_site234 (dsDNA)
DNA 1: GACAAAAAATTAAAATAAAATAATAATATAATAAAA
DNA 2: TTTTATTATATTATTATTTTATTTTAATTTTTTGTC
B16: GTGCAC_negctrl_site123 (dsDNA)
DNA 1: TCCTTAAAAATCTAAAAAGAAAAAAACATATATTTT
DNA 2: AAAATATATGTTTTTTTCTTTTTAGATTTTTAAGGA
B17: GTGCAC_negctrl_site473 (dsDNA)
DNA 1: GGGTCAAGTAAGCTGTTCCTCTTTTTCTTTCTCACT
DNA 2: AGTGAGAAAGAAAAAGAGGAACAGCTTACTTGACCC

The target in the series is AP2-I D3 (Plasmodium falciparum, UniProt Q8IJW6 910-1027). Put plainly: gcPBM; about 25 ug protein; PBS, 1% milk, 0.2 mg/ml BSA, salmon testes DNA, 0.03% Triton X-100. Conditions: tags: N-terminal GST (pGEX-4T-1), kept; label: surface-attached array probe.
Turning to B1, the binding signal was 7.02 ln median PBM intensity, better of two orientations.
Next, B2: 6.88 ln median PBM intensity, better of two orientations; B3: 7.01 ln median PBM intensity, better of two orientations; B4: 6.92 ln median PBM intensity, better of two orientations.
For B5 the value was 7.03 ln median PBM intensity, better of two orientations; for B6, 7 ln median PBM intensity, better of two orientations.
With B7, the binding signal was 6.94 ln median PBM intensity, better of two orientations.
As for B8, the binding signal was 7 ln median PBM intensity, better of two orientations.
Next, B9: 6.93 ln median PBM intensity, better of two orientations.
With B10, the binding signal is 6.89 ln median PBM intensity, better of two orientations.
For B11 the value was 6.96 ln median PBM intensity, better of two orientations; for B12, 6.93 ln median PBM intensity, better of two orientations.
Next, B13: 6.95 ln median PBM intensity, better of two orientations.
For B14 the value was 7.01 ln median PBM intensity, better of two orientations.
For B15, the binding signal is 6.9 ln median PBM intensity, better of two orientations.
For B16 the value was 6.9 ln median PBM intensity, better of two orientations; for B17, 6.97 ln median PBM intensity, better of two orientations.
